Experimental data from patent publication US20070224212A1 (Merck Sharp & Dohme, published 2007).
Numbered stars: 1 amine (or outer) side, 2 acyl side, 3 side chain; on linkers, the order of the positions; unused ones are H or OH. Bridge positions count the residues as written; N and C are the ends. Square brackets hold non-standard residues; d marks the D form. Ends that are not written are not given here. I, II: the chains in the order shown. * marks the point of attachment. Cys(Acm) = Cys protected with acetamidomethyl (Acm), CC(=O)NCSC[C@H](N[*:1])C(=O)[*:2]; Biotin = O=C1N[C@H]2[C@H](CS[C@H]2CCCCC(=O)*)N1; Ttds = O=C(CCC(=O)[*:2])NCCCOCCOCCOCCCN[*:1]

What was measured:
Test in all cases: cell-based or functional assay
HIV-1 gp41 (strain HXB2) [1] = biological target: T1, HIV-1 gp41 (strain HXB2) (HIV-1 strain HXB2, UniProt P04578 512-856)
HIV-1 gp41 (strain HXB2) [2] = biological target: T1, HIV-1 gp41 (strain HXB2); remark: listed apart in the source
HIV-1 gp41 (strain HXB2) [3] = biological target: T1, HIV-1 gp41 (strain HXB2); remark: listed apart in the source
HIV-1 gp41 (strain BaL) = HIV-1 gp41 (strain BaL) (HIV-1 strain BaL)
HIV-1 gp41 (strain 89.6) = HIV-1 gp41 (strain 89.6) (HIV-1 strain 89.6)
gp41 of SHIV-89.6P = gp41 of SHIV-89.6P (SHIV-89.6P)
HIV-1 gp41 (strain MN-1) = HIV-1 gp41 (strain MN-1) (HIV-1 strain MN-1, UniProt P05877 514-856)
Chain of HIV-1 gp41 (strain MN-1) (P05877 514-856 limits assumed): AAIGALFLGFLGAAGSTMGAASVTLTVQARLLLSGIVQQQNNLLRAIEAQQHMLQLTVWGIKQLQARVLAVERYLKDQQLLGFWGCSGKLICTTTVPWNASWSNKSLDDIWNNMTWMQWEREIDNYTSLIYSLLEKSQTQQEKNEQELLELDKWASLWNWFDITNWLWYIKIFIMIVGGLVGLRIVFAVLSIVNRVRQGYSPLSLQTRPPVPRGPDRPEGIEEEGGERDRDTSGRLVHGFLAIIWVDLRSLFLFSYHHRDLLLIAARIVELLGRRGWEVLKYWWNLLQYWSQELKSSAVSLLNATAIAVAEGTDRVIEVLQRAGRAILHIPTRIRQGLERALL

[4] = biological target: HIV-1 gp41 (strain NL4-3) (HIV-1 strain NL4-3)

B1: (CCIZN13)3 (peptide)
peptide: Ac-CCGGIKKEIEAIKKEQEAIKKKIEAIEKLLQLTVWGIKQLQ
modifications: not fully specified (bridges); also: homotrimer of three chains, cysteine pairing not given here
HIV-1 gp41 (strain HXB2) [1]
  IC50, antiviral activity against HIV HXB2 (FIG. 13): 85.3 nM

B2: (CCIZN17Ala4)3 (peptide)
peptide: Ac-CCGGIKKEIEAIKKEQEAIKKKIEAIEKLLQLTVWGIKALAAAIA-NH2
modifications: not fully specified (bridges); also: homotrimer of three chains, cysteine pairing not given here
HIV-1 gp41 (strain HXB2) [2]
  IC50, anti-viral activity against HIV-HXB2: 47 nM

B3: (CCI10N17)3 (peptide)
peptide: Ac-CCGGIKKKIEAIEKLLQLTVWGIKQLQARIL-NH2
modifications: not fully specified (bridges); also: homotrimer of three chains, cysteine pairing not given here
HIV-1 gp41 (strain HXB2) [1]
  IC50, anti-viral assay against HIV-1 HXB2 (FIG. 13): 24 nM
  fold change of IC50 against (CCIZN17)3, anti-viral assay against HIV-1 HXB2 (FIG. 13): ~150 fold
  fold change of IC50 against IZN17, anti-viral assay against HIV-1 HXB2 (FIG. 13): ~10 fold

B4: (CCIZN17)3 (peptide)
peptide: Ac-CCGGIKKEIEAIKKEQEAIKKKIEAIEKLLQLTVWGIKQLQARIL-NH2
modifications: not fully specified (bridges); also: homotrimer of three chains, cysteine pairing not given here
HIV-1 gp41 (strain HXB2) [1]
  IC50, anti-viral assay against HIV-1 HXB2 (FIG. 13): 0.132 nM
HIV-1 gp41 (strain HXB2) [3]
  IC50, single-cycle HIV infectivity assay: 0.04 nM
HIV-1 gp41 (strain BaL)
  IC50, single-cycle HIV infectivity assay: 0.34 nM
HIV-1 gp41 (strain 89.6)
  IC50, single-cycle HIV infectivity assay: 8 nM
gp41 of SHIV-89.6P
  IC50, single-cycle HIV infectivity assay: 6.9 nM
HIV-1 gp41 (strain MN-1)
  IC50, single-cycle HIV infectivity assay: 0.9 nM
[4]
  IC50, single-cycle HIV infectivity assay: 0.1 nM

B5: (CCS17N17)3 (peptide)
peptide chain of the covalent trimer: Ac-CCGGIEKKIEAIEKKIEAIEKLLQLTVWGIKQLQARIL-NH2
modifications: not fully specified (bridges); also: homotrimer of three chains, cysteine pairing not given here
HIV-1 gp41 (strain HXB2) [2]
  IC50, anti-viral activity against HIV-HXB2: 0.33 nM

## Ac-IKKEIEAIKKEQEAIKKKIEAIEKLLQLTVWGIKALAAAIA-NH2 [IZN17Ala4]
HIV-1 gp41 (strain HXB2) [1]
  IC50, single-cycle infectivity assay, HIV-1 HXB2 (FIG. 12A): 25 nM
HIV-1 gp41 (strain HXB2) [2]
  IC50, anti-viral activity against HIV-HXB2: 25.3 nM

B6: NH2-C(Fm)(thioIZN17)3 (peptide)
peptide 1: CCCGGIKKEIEAIKKEQEAIKKKIEAIEKLLQLTVWGIKQLQARIL
peptide 2: GGGIKKEIEAIKKEQEAIKKKIEAIEKLLQLTVWGIKQLQARIL
modifications: N-terminal acetyl (from bromoacetyl) joined by a thioether bond to a Cys of the CC chain; free N-terminal amine; Cys1 thiol protected with Fm; Ttds linker between Cys1 and Cys2; Cys2 and Cys3 each joined by a thioether bond to the N-terminal acetyl of a GGGIZN17 chain
HIV-1 gp41 (strain HXB2) [1]
  IC50, single cell infectivity assay, HIV-1 HXB2: 1.1 nM

B7: ac-C(Acm)(thioIZN17)3 (peptide)
peptide 1: B6 peptide 1
peptide 2: B6 peptide 2
modifications: N-terminal acetyl (from bromoacetyl) joined by a thioether bond to a Cys of the CC chain; N-terminal acetyl; Cys1 thiol protected with acetamidomethyl (Acm); Ttds linker between Cys1 and Cys2; Cys2 and Cys3 each joined by a thioether bond to the N-terminal acetyl of a GGGIZN17 chain
HIV-1 gp41 (strain HXB2) [2]
  IC50, anti-viral activity against HIV-HXB2: 0.24 nM

B8: ac-C(thioIZN17)3 (peptide)
peptide 1: B6 peptide 1
peptide 2: B6 peptide 2
modifications: N-terminal acetyl (from bromoacetyl) joined by a thioether bond to a Cys of the CC chain; N-terminal acetyl; Cys1 free thiol; Ttds linker between Cys1 and Cys2; Cys2 and Cys3 each joined by a thioether bond to the N-terminal acetyl of a GGGIZN17 chain
HIV-1 gp41 (strain HXB2) [1]
  IC50, anti-viral activity assay, HIV-HXB2: 0.24 nM

B9: ac-C(Acm)(thioS17N17)3 (peptide)
peptide 1: CCCGGIEKKIEAIEKKIEAIEKLLQLTVWGIKQLQARIL
peptide 2: GGGIEKKIEAIEKKIEAIEKLLQLTVWGIKQLQARIL
modifications: N-terminal acetyl (from bromoacetyl) joined by a thioether bond to a Cys of the CC chain; N-terminal acetyl; Cys1 thiol protected with Acm; Ttds linker between Cys1 and Cys2; Cys2 and Cys3 each joined by a thioether bond to the N-terminal acetyl of a GGGS17N17 chain
HIV-1 gp41 (strain HXB2) [1]
  IC50, single cell infectivity assay, HIV-1 HXB2: 0.27 nM

B10: ac-C(Acm)(thioE10N17)3 (peptide)
peptide 1: Ac-[Cys(Acm)][Ttds]CCIEEKIEEIEELLQLTVWGIKQLQARIL
peptide 2: Ac-GGGIEEKIEEIEELLQLTVWGIKQLQARIL
modifications: bridge I:N-I:4; thioether (positions not given here); not fully specified (bridges); also: trimer, copy numbers of chains not given here
HIV-1 gp41 (strain HXB2) [2]
  IC50, anti-viral activity against HIV-HXB2: 150 nM

## Ac-IKKEIEAIKKEQEAIKKKIEAIEKLLQLTVWGIKQLQARIL-NH2 (also: non-covalent trimeric coiled-coil) [IZN17]
HIV-1 gp41 (strain HXB2) [1]
  IC50, anti-viral assay against HIV-1 HXB2 (FIG. 13): 1.68 nM
  IC50, single-cycle infectivity assay, HIV-1 HXB2: 0.2 nM
HIV-1 gp41 (strain HXB2) [3]
  IC50, single-cycle HIV infectivity assay: 1.7 nM
HIV-1 gp41 (strain BaL)
  IC50, single-cycle HIV infectivity assay: 3.2 nM

B11: (Biotin-CCIZN23)3 (peptide)
peptide: Biotin-GCCGGIKKEIEAIKKEQEAIKKKIEAIEKEIEAQQHLLQLTVWGIKQLQARIL
modifications: not fully specified (bridges); also: covalent homotrimer via three interchain disulfides
HIV-1 gp41 (strain HXB2) [3]
  IC50, single-cycle HIV infectivity assay: 0.316 nM

B12: (I10N17CC)3 (peptide)
peptide: IKKKIEAIEKLLQLTVWGIKQLQARILGGCC
modifications: not fully specified (bridges); also: homotrimer of three chains, cysteine pairing not given here
HIV-1 gp41 (strain HXB2) [2]
  IC50, anti-viral activity against HIV-HXB2: 77.6 nM

## Biotin-GGIKKEIEAIKKEQEAIKKKIEAIEKEIEAQQHLLQLTVWGIKQLQARIL [Biotin-IZN23]
HIV-1 gp41 (strain HXB2) [3]
  IC50, single-cycle HIV infectivity assay: 2.17 nM
